Assay results published in the supplement of paper PMC10065799, “High-throughput profiling of sequence recognition by tyrosine kinases and SH2 domains using bacterial peptide display” (eLife, 2023).
Each block holds one sequence with its values, some of them ahead of it.

Key:
[1] = molecular target: FGFR3 (UniProt P22607); test: phosphorylation enrichment, bacterial display (enrichment ratio); higher = better substrate or ligand; peptides without Tyr show the background
[2] = molecular target: EPHB2 (UniProt P29323); test: as above
[3] = molecular target: EPHB1 (UniProt P54762); test: as above
[4] = tested on: Fer (mouse); test: as above
[5] = tested on: c-Src; test: as above
[6] = molecular target: Fyn (UniProt P06241); test: as above
[7] = tested on: c-Abl (mouse); test: as above
[8] = molecular target: Fes (UniProt P07332); test: as above
[9] = molecular target: MERTK (UniProt Q12866); test: as above
[10] = molecular target: Jak2 (UniProt O60674); test: as above
[11] = molecular target: FGFR1 (UniProt P11362); test: as above
[12] = molecular target: Hck (UniProt P08631); test: as above
[13] = tested on: AncSZ; test: as above
[14] = molecular target: Grb2 SH2 (UniProt P62993); test: SH2 binding enrichment of the phosphorylated peptide, bacterial display (enrichment ratio); higher = better substrate or ligand; peptides without Tyr show the background
[15] = molecular target: SHP2-C SH2; test: as above
[16] = molecular target: c-Src SH2; test: as above
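Wherever SH2 binding enrichment of the phosphorylated peptide, bacterial display is given: peptide library displayed on the E. coli surface as eCPX fusions, selected cells deep-sequenced, score is each peptide's frequency after selection divided by its frequency in the input.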
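Wherever phosphorylation enrichment, bacterial display is given: 11-residue human phosphosite peptides and single-mutation variants displayed on the E. coli surface, counted by deep sequencing, each peptide's frequency after selection divided by its frequency in the unselected input library; frequency after pTyr selection over input frequency; kinase dosed for 20-30% of maximal phosphorylation in three min.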

Chain of Fes (P07332 whole entry, looked up): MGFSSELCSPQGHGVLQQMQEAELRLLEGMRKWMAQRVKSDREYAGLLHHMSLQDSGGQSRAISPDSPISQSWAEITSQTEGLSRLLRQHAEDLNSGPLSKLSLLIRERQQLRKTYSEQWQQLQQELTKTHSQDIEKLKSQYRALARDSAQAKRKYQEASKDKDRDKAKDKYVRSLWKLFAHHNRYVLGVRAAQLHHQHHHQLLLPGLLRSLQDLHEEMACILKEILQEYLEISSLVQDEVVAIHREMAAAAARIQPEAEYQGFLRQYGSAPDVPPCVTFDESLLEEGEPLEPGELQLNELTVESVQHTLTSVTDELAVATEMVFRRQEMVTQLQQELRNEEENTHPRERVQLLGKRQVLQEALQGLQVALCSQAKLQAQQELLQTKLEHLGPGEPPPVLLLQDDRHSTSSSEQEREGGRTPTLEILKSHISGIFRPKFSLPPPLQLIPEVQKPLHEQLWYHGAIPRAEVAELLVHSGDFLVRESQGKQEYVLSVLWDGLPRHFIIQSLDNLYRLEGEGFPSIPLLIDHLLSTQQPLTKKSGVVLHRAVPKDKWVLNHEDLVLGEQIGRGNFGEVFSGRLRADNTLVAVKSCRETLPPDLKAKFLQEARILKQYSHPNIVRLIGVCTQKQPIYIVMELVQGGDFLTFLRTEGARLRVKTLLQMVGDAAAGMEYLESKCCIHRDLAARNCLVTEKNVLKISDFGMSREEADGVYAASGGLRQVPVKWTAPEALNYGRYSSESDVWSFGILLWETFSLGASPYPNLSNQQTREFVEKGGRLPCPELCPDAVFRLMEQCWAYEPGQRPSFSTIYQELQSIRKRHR
Chain of FGFR3 (P22607 whole entry, looked up): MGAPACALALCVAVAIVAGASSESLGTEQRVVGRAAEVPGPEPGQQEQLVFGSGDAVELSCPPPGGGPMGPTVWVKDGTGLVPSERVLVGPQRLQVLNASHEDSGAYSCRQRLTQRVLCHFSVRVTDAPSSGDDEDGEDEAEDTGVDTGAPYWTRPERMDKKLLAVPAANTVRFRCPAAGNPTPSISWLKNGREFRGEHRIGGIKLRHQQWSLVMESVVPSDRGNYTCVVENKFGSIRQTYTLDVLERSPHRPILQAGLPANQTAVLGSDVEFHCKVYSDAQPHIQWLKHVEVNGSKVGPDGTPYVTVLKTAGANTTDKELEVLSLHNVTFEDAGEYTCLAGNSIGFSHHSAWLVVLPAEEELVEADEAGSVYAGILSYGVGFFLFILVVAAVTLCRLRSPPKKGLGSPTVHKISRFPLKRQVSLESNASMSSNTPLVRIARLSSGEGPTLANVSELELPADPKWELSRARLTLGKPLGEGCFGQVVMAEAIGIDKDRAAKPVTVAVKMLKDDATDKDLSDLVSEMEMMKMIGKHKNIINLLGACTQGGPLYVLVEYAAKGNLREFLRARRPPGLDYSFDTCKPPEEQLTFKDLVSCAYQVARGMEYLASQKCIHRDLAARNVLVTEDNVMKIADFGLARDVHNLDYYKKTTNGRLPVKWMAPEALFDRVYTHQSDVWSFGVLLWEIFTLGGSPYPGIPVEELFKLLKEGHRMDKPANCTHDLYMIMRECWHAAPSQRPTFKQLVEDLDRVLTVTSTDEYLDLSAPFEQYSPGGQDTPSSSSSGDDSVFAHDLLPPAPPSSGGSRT
Chain of EPHB2 (P29323 whole entry, looked up): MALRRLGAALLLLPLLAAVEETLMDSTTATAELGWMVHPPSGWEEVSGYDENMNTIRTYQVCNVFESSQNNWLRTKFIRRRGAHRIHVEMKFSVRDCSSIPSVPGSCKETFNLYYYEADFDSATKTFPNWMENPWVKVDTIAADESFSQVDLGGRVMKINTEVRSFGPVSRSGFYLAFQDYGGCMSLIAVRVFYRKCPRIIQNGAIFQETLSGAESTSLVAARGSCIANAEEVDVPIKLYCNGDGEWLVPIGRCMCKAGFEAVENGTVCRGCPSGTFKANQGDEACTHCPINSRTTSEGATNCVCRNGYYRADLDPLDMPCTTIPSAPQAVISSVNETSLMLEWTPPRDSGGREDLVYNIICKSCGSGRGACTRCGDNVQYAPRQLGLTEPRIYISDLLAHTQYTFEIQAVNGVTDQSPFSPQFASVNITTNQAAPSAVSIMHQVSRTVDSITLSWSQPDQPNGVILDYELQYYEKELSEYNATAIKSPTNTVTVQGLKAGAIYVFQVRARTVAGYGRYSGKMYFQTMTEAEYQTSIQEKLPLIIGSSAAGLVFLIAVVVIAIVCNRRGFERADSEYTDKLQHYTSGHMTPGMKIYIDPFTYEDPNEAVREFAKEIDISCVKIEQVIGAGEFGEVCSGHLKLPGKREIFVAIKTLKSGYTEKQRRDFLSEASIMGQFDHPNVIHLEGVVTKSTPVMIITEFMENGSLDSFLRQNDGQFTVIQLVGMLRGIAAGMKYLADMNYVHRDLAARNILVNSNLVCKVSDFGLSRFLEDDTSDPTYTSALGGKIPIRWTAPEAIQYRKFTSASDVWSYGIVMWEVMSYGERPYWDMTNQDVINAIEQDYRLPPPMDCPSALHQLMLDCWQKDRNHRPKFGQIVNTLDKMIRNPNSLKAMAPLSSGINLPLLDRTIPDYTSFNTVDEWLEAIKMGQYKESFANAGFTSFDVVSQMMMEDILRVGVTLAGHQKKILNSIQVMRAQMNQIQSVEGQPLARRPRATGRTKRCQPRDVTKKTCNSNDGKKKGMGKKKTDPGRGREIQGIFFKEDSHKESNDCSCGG
Chain of FGFR1 (P11362 whole entry, looked up): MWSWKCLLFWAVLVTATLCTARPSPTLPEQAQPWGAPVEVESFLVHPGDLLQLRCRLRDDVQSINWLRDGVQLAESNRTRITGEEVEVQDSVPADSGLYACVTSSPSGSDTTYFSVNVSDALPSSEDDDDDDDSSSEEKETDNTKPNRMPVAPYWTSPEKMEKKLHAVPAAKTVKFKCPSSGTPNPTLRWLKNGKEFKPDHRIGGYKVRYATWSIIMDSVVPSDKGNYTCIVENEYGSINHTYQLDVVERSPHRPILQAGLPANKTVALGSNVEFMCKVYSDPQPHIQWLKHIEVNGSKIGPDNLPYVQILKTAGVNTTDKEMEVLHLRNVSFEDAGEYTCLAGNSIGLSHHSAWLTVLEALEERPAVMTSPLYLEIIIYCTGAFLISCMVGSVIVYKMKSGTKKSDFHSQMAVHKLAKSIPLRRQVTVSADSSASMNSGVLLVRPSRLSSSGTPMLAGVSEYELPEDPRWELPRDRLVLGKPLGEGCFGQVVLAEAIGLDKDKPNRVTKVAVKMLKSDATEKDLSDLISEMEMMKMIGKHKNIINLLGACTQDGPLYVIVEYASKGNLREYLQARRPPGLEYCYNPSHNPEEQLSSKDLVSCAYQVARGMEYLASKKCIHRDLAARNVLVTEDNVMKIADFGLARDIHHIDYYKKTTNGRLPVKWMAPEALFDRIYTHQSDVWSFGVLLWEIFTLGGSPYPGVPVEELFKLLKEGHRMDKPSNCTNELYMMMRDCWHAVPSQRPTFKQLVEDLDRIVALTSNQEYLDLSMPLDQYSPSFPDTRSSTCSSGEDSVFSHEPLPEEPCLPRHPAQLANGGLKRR
Chain of MERTK (Q12866 whole entry, looked up): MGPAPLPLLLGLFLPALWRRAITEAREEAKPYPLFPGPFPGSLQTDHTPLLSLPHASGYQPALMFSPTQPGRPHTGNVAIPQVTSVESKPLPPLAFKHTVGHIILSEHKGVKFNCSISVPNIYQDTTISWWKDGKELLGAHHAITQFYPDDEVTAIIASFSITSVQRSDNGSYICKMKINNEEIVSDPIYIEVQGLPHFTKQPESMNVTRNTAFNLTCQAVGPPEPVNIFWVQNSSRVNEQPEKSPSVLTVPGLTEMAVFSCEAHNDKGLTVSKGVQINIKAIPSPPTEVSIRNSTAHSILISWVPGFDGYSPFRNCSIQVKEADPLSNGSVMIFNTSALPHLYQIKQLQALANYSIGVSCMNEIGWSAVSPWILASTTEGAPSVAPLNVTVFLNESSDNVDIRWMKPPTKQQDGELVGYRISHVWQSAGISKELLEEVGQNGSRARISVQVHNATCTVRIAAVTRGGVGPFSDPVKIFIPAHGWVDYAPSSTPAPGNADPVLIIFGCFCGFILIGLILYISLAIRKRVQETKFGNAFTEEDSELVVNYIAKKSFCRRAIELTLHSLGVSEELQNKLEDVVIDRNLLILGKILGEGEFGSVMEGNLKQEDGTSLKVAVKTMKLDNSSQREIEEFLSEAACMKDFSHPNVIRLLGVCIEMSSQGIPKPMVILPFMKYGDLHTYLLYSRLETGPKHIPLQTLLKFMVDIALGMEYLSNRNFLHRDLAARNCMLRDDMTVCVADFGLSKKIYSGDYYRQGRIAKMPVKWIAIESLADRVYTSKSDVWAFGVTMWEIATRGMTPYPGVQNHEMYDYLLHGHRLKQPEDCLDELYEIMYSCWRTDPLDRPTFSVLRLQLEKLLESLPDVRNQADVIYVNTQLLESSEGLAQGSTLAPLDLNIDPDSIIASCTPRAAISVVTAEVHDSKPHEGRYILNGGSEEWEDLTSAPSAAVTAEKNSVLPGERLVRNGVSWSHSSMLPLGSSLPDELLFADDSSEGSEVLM
Chain of Fyn (P06241 whole entry, looked up): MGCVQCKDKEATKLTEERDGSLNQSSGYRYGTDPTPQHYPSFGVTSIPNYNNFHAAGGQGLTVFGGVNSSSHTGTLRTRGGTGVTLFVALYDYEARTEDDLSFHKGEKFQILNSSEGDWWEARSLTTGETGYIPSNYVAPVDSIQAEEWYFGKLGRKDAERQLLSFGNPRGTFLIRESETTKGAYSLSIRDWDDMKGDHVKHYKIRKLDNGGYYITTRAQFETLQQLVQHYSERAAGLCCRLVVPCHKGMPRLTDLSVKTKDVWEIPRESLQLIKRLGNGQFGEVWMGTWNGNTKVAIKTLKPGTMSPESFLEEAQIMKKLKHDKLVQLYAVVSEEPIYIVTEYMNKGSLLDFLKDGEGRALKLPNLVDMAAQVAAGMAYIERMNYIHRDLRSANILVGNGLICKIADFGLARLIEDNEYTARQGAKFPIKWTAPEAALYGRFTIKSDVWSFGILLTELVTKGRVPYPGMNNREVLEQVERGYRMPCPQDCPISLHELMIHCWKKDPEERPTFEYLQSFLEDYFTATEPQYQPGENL

Sequence: ADCRYYTFPQM [GAMT_Y223_A224T]
- phosphorylation enrichment [1]: 7.83
- phosphorylation enrichment [2]: 2.84
- phosphorylation enrichment [3]: 4.67
- phosphorylation enrichment [4]: 4.67
- phosphorylation enrichment [5]: 4.77
- phosphorylation enrichment [6]: 3.97
- phosphorylation enrichment [7]: 1.99
- phosphorylation enrichment [8]: 0.998
- phosphorylation enrichment [9]: 9.97
- phosphorylation enrichment [10]: 4.44
- phosphorylation enrichment [11]: 10.9
- phosphorylation enrichment [12]: 3.29
- phosphorylation enrichment [13]: 3.09
- SH2 binding enrichment [14]: 1.05
- SH2 binding enrichment [15]: 1.34
- SH2 binding enrichment [16]: 3.2

Sequence: KNILCYIQGGS [HYDIN_Y4610]
- phosphorylation enrichment [1]: 0.761
- phosphorylation enrichment [2]: 0.748
- phosphorylation enrichment [3]: 0.711
- phosphorylation enrichment [4]: 0.522
- phosphorylation enrichment [5]: 0.504
- phosphorylation enrichment [6]: 0.436
- phosphorylation enrichment [7]: 0.977
- phosphorylation enrichment [8]: 1.43
- phosphorylation enrichment [9]: 0.458
- phosphorylation enrichment [10]: 1.27
- phosphorylation enrichment [11]: 0.585
- phosphorylation enrichment [12]: 0.594
- phosphorylation enrichment [13]: 1.13
- SH2 binding enrichment [14]: 0.617
- SH2 binding enrichment [15]: 0.598
- SH2 binding enrichment [16]: 0.328

Sequence: LNLKEYNLVGG [GNAQ_Y356]
- phosphorylation enrichment [1]: 0.698
- phosphorylation enrichment [2]: 0.411
- phosphorylation enrichment [3]: 0.307
- phosphorylation enrichment [4]: 0.685
- phosphorylation enrichment [5]: 0.561
- phosphorylation enrichment [6]: 0.529
- phosphorylation enrichment [7]: 0.709
- phosphorylation enrichment [8]: 0.867
- phosphorylation enrichment [9]: 0.424
- phosphorylation enrichment [10]: 0.793
- phosphorylation enrichment [11]: 0.357
- phosphorylation enrichment [12]: 0.485
- phosphorylation enrichment [13]: 1.23
- SH2 binding enrichment [14]: 0.783
- SH2 binding enrichment [15]: 0.844
- SH2 binding enrichment [16]: 1.17

Sequence: RVEDAYILTCN [CCT6A_Y229]
- phosphorylation enrichment [1]: 0.689
- phosphorylation enrichment [2]: 0.487
- phosphorylation enrichment [3]: 0.515
- phosphorylation enrichment [4]: 4.93
- phosphorylation enrichment [5]: 1
- phosphorylation enrichment [6]: 0.839
- phosphorylation enrichment [7]: 0.565
- phosphorylation enrichment [8]: 0.928
- phosphorylation enrichment [9]: 0.498
- phosphorylation enrichment [10]: 0.772
- phosphorylation enrichment [11]: 0.721
- phosphorylation enrichment [12]: 0.692
- phosphorylation enrichment [13]: 1.07
- SH2 binding enrichment [14]: 0.663
- SH2 binding enrichment [15]: 0.54
- SH2 binding enrichment [16]: 0.671

Sequence: FASALYGQRRS [FGF11_Y162_R163G_YF]
- phosphorylation enrichment [1]: 0.442
- phosphorylation enrichment [2]: 0.415
- phosphorylation enrichment [3]: 0.343
- phosphorylation enrichment [4]: 0.505
- phosphorylation enrichment [5]: 0.641
- phosphorylation enrichment [6]: 0.444
- phosphorylation enrichment [7]: 0.47
- phosphorylation enrichment [8]: 0.682
- phosphorylation enrichment [9]: 0.516
- phosphorylation enrichment [10]: 0.616
- phosphorylation enrichment [11]: 0.364
- phosphorylation enrichment [12]: 0.903
- phosphorylation enrichment [13]: 0.724
- SH2 binding enrichment [14]: 0.659
- SH2 binding enrichment [15]: 0.457
- SH2 binding enrichment [16]: 0.511

Sequence: ALVDTYCRHNY [HLA-DRB1_Y107_A103L]
- phosphorylation enrichment [1]: 0.501
- phosphorylation enrichment [2]: 0.486
- phosphorylation enrichment [3]: 0.439
- phosphorylation enrichment [4]: 0.442
- phosphorylation enrichment [5]: 0.432
- phosphorylation enrichment [6]: 0.46
- phosphorylation enrichment [7]: 0.515
- phosphorylation enrichment [8]: 0.709
- phosphorylation enrichment [9]: 0.618
- phosphorylation enrichment [10]: 0.456
- phosphorylation enrichment [11]: 0.401
- phosphorylation enrichment [12]: 0.549
- phosphorylation enrichment [13]: 0.474
- SH2 binding enrichment [14]: 0.911
- SH2 binding enrichment [15]: 0.79
- SH2 binding enrichment [16]: 0.582

Sequence: RSGIYYKPESL [L2HGDH_Y103_H98R]
- phosphorylation enrichment [1]: 3.3
- phosphorylation enrichment [2]: 3.34
- phosphorylation enrichment [3]: 2.37
- phosphorylation enrichment [4]: 0.699
- phosphorylation enrichment [5]: 2.6
- phosphorylation enrichment [6]: 2.43
- phosphorylation enrichment [7]: 45.6
- phosphorylation enrichment [8]: 0.915
- phosphorylation enrichment [9]: 17
- phosphorylation enrichment [10]: 2.29
- phosphorylation enrichment [11]: 5.07
- phosphorylation enrichment [12]: 4.86
- phosphorylation enrichment [13]: 1.17
- SH2 binding enrichment [14]: 0.935
- SH2 binding enrichment [15]: 0.745
- SH2 binding enrichment [16]: 0.854

Sequence: FRPPYYHRDCM [HGD_Y334_N337D]
- phosphorylation enrichment [1]: 0.735
- phosphorylation enrichment [2]: 0.611
- phosphorylation enrichment [3]: 0.536
- phosphorylation enrichment [4]: 0.499
- phosphorylation enrichment [5]: 0.455
- phosphorylation enrichment [6]: 0.417
- phosphorylation enrichment [7]: 0.572
- phosphorylation enrichment [8]: 0.867
- phosphorylation enrichment [9]: 0.444
- phosphorylation enrichment [10]: 0.723
- phosphorylation enrichment [11]: 0.56
- phosphorylation enrichment [12]: 0.415
- phosphorylation enrichment [13]: 0.805
- SH2 binding enrichment [14]: 1.08
- SH2 binding enrichment [15]: 0.913
- SH2 binding enrichment [16]: 1.09

Sequence: MGCVNYGAFIN [GLB1_Y485_R482C_YF]
- phosphorylation enrichment [1]: 0.825
- phosphorylation enrichment [2]: 0.617
- phosphorylation enrichment [3]: 0.69
- phosphorylation enrichment [4]: 0.522
- phosphorylation enrichment [5]: 1.19
- phosphorylation enrichment [6]: 0.553
- phosphorylation enrichment [7]: 1.01
- phosphorylation enrichment [8]: 1.26
- phosphorylation enrichment [9]: 0.606
- phosphorylation enrichment [10]: 1.14
- phosphorylation enrichment [11]: 0.531
- phosphorylation enrichment [12]: 0.532
- phosphorylation enrichment [13]: 1.05
- SH2 binding enrichment [14]: 0.752
- SH2 binding enrichment [15]: 0.793
- SH2 binding enrichment [16]: 0.514

Continued, in another order:

- SH2 binding enrichment [14]: 1.15
- SH2 binding enrichment [15]: 1.26
- SH2 binding enrichment [16]: 0.651
Sequence: TVEDHDYEGGI [TKT_Y563_Y563D]
- phosphorylation enrichment [1]: 0.727
- phosphorylation enrichment [2]: 0.583
- phosphorylation enrichment [3]: 0.543
- phosphorylation enrichment [4]: 0.559
- phosphorylation enrichment [5]: 0.526
- phosphorylation enrichment [6]: 0.478
- phosphorylation enrichment [7]: 0.654
- phosphorylation enrichment [8]: 1.17
- phosphorylation enrichment [9]: 0.49
- phosphorylation enrichment [10]: 0.963
- phosphorylation enrichment [11]: 0.481
- phosphorylation enrichment [12]: 0.5
- phosphorylation enrichment [13]: 1.08

- SH2 binding enrichment [14]: 0.855
- SH2 binding enrichment [15]: 0.619
- SH2 binding enrichment [16]: 0.566
Sequence: AEYGLYRAMVR [VSX2_Y222_G223R]
- phosphorylation enrichment [1]: 0.679
- phosphorylation enrichment [2]: 3.62
- phosphorylation enrichment [3]: 2.89
- phosphorylation enrichment [4]: 0.603
- phosphorylation enrichment [5]: 6.94
- phosphorylation enrichment [6]: 9.03
- phosphorylation enrichment [7]: 7.87
- phosphorylation enrichment [8]: 0.768
- phosphorylation enrichment [9]: 2.38
- phosphorylation enrichment [10]: 0.75
- phosphorylation enrichment [11]: 0.577
- phosphorylation enrichment [12]: 9.69
- phosphorylation enrichment [13]: 0.814

- SH2 binding enrichment [14]: 1.02
- SH2 binding enrichment [15]: 0.722
- SH2 binding enrichment [16]: 0.881
Sequence: LARDIYKNDYY [ROS1_Y2110]
- phosphorylation enrichment [1]: 2.19
- phosphorylation enrichment [2]: 0.782
- phosphorylation enrichment [3]: 0.953
- phosphorylation enrichment [4]: 0.369
- phosphorylation enrichment [5]: 1.42
- phosphorylation enrichment [6]: 0.854
- phosphorylation enrichment [7]: 0.462
- phosphorylation enrichment [8]: 0.828
- phosphorylation enrichment [9]: 0.426
- phosphorylation enrichment [10]: 0.752
- phosphorylation enrichment [11]: 3.15
- phosphorylation enrichment [12]: 0.712
- phosphorylation enrichment [13]: 1.1

- SH2 binding enrichment [14]: 1.01
- SH2 binding enrichment [15]: 1.06
- SH2 binding enrichment [16]: 2.42
Sequence: CTTIHYNSMCN [TP53_Y234_Y236S]
- phosphorylation enrichment [1]: 0.627
- phosphorylation enrichment [2]: 0.645
- phosphorylation enrichment [3]: 0.514
- phosphorylation enrichment [4]: 0.467
- phosphorylation enrichment [5]: 0.396
- phosphorylation enrichment [6]: 0.464
- phosphorylation enrichment [7]: 0.544
- phosphorylation enrichment [8]: 0.905
- phosphorylation enrichment [9]: 0.42
- phosphorylation enrichment [10]: 0.603
- phosphorylation enrichment [11]: 0.486
- phosphorylation enrichment [12]: 0.561
- phosphorylation enrichment [13]: 0.849

- SH2 binding enrichment [14]: 1.18
- SH2 binding enrichment [15]: 1.01
- SH2 binding enrichment [16]: 0.735
Sequence: FGHTFYNQAIM [MCCC2_Y196_R193H]
- phosphorylation enrichment [1]: 0.556
- phosphorylation enrichment [2]: 0.447
- phosphorylation enrichment [3]: 0.404
- phosphorylation enrichment [4]: 0.461
- phosphorylation enrichment [5]: 0.455
- phosphorylation enrichment [6]: 0.465
- phosphorylation enrichment [7]: 0.527
- phosphorylation enrichment [8]: 0.945
- phosphorylation enrichment [9]: 0.445
- phosphorylation enrichment [10]: 0.856
- phosphorylation enrichment [11]: 0.555
- phosphorylation enrichment [12]: 0.41
- phosphorylation enrichment [13]: 0.715

- SH2 binding enrichment [14]: 0.667
- SH2 binding enrichment [15]: 0.662
- SH2 binding enrichment [16]: 0.419
Sequence: SVTCTDSPALN [TP53_Y126_Y126D]
- phosphorylation enrichment [1]: 0.805
- phosphorylation enrichment [2]: 0.564
- phosphorylation enrichment [3]: 0.6
- phosphorylation enrichment [4]: 0.567
- phosphorylation enrichment [5]: 0.427
- phosphorylation enrichment [6]: 0.447
- phosphorylation enrichment [7]: 0.847
- phosphorylation enrichment [8]: 1.13
- phosphorylation enrichment [9]: 0.351
- phosphorylation enrichment [10]: 0.958
- phosphorylation enrichment [11]: 0.491
- phosphorylation enrichment [12]: 0.474
- phosphorylation enrichment [13]: 0.975

- SH2 binding enrichment [14]: 0.742
- SH2 binding enrichment [15]: 0.548
- SH2 binding enrichment [16]: 0.299
Sequence: GQSKGYRPKLF [SIPA1L3_Y1376_YF]
- phosphorylation enrichment [1]: 0.419
- phosphorylation enrichment [2]: 0.324
- phosphorylation enrichment [3]: 0.319
- phosphorylation enrichment [4]: 0.342
- phosphorylation enrichment [5]: 0.412
- phosphorylation enrichment [6]: 0.363
- phosphorylation enrichment [7]: 0.448
- phosphorylation enrichment [8]: 0.837
- phosphorylation enrichment [9]: 0.389
- phosphorylation enrichment [10]: 0.37
- phosphorylation enrichment [11]: 0.364
- phosphorylation enrichment [12]: 0.395
- phosphorylation enrichment [13]: 0.433

- SH2 binding enrichment [14]: 0.556
- SH2 binding enrichment [15]: 0.706
- SH2 binding enrichment [16]: 0.385
Sequence: PLGKDYRKVEG [MAP1A_Y1909_A1912V]
- phosphorylation enrichment [1]: 0.685
- phosphorylation enrichment [2]: 0.768
- phosphorylation enrichment [3]: 0.561
- phosphorylation enrichment [4]: 0.456
- phosphorylation enrichment [5]: 1.53
- phosphorylation enrichment [6]: 0.74
- phosphorylation enrichment [7]: 1.66
- phosphorylation enrichment [8]: 0.883
- phosphorylation enrichment [9]: 0.741
- phosphorylation enrichment [10]: 1.52
- phosphorylation enrichment [11]: 0.518
- phosphorylation enrichment [12]: 0.513
- phosphorylation enrichment [13]: 1.27
